Data published in the NTF2 design screens of Basanta et al. (2020).

Assay: protease stability score; higher = more stable; yeast display proteolysis, trypsin and chymotrypsin;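 also: relative to predicted unfolded state with 0 unfolded-like and 1 meaning tenfold more protease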

Sequence	protease stability score
DEDEKWAERFLELLIRSLVTGDEKTLEELADPRVKVEIGDKILHGRDEFERFIHEARIKSVHVRRMTDINGVMLMDGETTGNIDGVDRRRRTRIWVLKINGQWHLHSYQVV	1.41
DEDEKYEEHYVEMFLRWLQTGDEDQIERNADPNVRLDVNGRDIIGWENIIEHIRQIKNLRIQIRRVRVVDGRSIVDIRVEVNGKRHEVNLIVIIINGKLKEVKFEFR	2.71
DEDEKYLKEFLRILIEARRTGDEQLLERLMDPRVKLDNENHFSHGREDAVRHLNEHSKEARLESVEVHDVRVFNGVILWDVRIHGDIDGRRDTFNVIIIILKVNGRWRLREFIFT	1.39
DEDEKYMQEFLERLWRDLYTGDEESLTRRMDPRTRVDINGVDIHGMERVTEHIKHLVDRADHIELIIHTVNNVDGRAHNDGILVIKVNGREIRIETHFVLLKVDGRWRIQSEEYR	0.399
DEDEKYVREVFRRFVEAVITGNEEELLELIDPHVRVLINGVDNMGREKWSEWMKRYGFRVHHVRIDDEDLINGVARLDTTEDVEYDGRRDTRHSHIIINKVDGRWHIERLEFR	1.01
DEDENIARHAMELYFKLFETGDFNTLSHLLDPNVRSNINGQTLHGRELMLKQFLDLWEHMGVDHIELKDSREHLVNGRVHRHFHGHLHVNGQTYEVHVRFIMVKVNGRWRHTSESISIR	1.1
DEDENLMRQFWETWEEALKTGDEHILHNLMDPNYRFIIGDKEHHGREAAEEFIRRVDHVTDIKFHRYRRIGDKIQIDGHLDGEINGKRNRYRSDIFVLKIDGRWFIHSVQIK	2.31
DEDEQAFRHIMELKIHNINTGDEESLRRLMDPHVRIIIGDKQFHGMEFATEVFRRLGIKYIEDFKIDDLRIQGDKLDAHVTVRGNFNGVHTFHKMRLILRKYDGRWYIEHEEIK	2.14
DEDEQELRDALERWIRAMYTGDEKTLRDLIDPNVLIDINGKIIHGRHKLSQHLREIRIHHFEMHIEDYRFQGDKVHMDVREKRHWVIGDKHIDESRSVTLIIVKFDGRWLMHRVIVH	1.19
DEDEQFWRNLAEEFMRALETGDEERMQELFDPHARLDIDGRRFHGWDTVIKFFEDLLKHLGITRIEFVYRRVRVINGVFHIEGEINVDGQTRDSRIENIVVDGKSQELRFNHR	0.298
DEDEQHSELLFRLLYHARKTGDWRKLQELADPHTRFQIGEWDLIGWKMYLEYVRNFRNVHLEFHIKDFRLYGEKTHSNVETIIRIGDKTLNIETELRVDVVNGRIKFIEVHER	0.994
DEDEQKHREAAHLMLEMILTGDFEYFRHLLDPDVRLEINGKEIHGREEVYRHLLEWWQRIKNVRIKFKTMRIHIFDGVLFIHLDLEIEIGDKSIKTEILIVSIKIDGRWLLNSLHIHDR	1.04
DEDEQMKESLLKIYRQSMHTGDEESHERLADPNVRVDWDGVRYHGRHILAIILHELGADHMDLKIKDSRLVNGRIHMTVIEIIDIGDKKHKIETHLIADKFDGRWHLRTLEIR	0.785
DEDERAIHVMLKLVKKAMDTGNEHMETELLDPNVRLDVNGRDVHGREEMRKFLNHHWKEWGVDRIIFLFESIHFQGDKVHIRGYVHINGKDFDVEFIASKVNGRWLVESRHLR	1.03
DEDERAYEESVRTFLENNLTGNEEILHRLMDPHVKTDYGDKRYHGMEEATEMIRRLGVNHFHLNSVHHQGDKVHLHGRVIVNGREFQVHIESKKINGRWVIRKVVID	1.27
DEDERDARKITDDYLHHLTTGDWNLMDTLADPHMKMDVNGQEIHGRESMVDLMLEWRFEHTDVHDKHVRSYDGKLEIHLDVHSRVHYNGRTDDTRREITLHIHKIDGRWRLEEVRIHYL	0.695
DEDERDARKTSHLFLEAFTTGDEDLLRDMVDPNARSIVNGQEEHGWEVIHKTVRELQERYPNVKIDVNDWSYEVQGDKMRTILHFIIHFDGVHVEIHIHVFSRKINGRWVIRRIEYHER	2.07
DEDERDFRHYMELFQKAHETGDEDHFIKMMDPNARFLINGVHLHGWKEFVRLLEHIRMDVSDTRIRTVDSQGDKVRADTELIFRGKIDGREIDVTFETRIIIEKVDGRWHLREIRVH	1.3
DEDERDTREAIELFRESIRTGDERILEEMVDPNVRLEFNGKHHHGMEHLVKWFSFLAKHWRVDIDLHHLEVQGDKVHSDERIDLVQGDKIVHTEVKIIFRKINGRWLMHKIRIN	1.4
DEDERDTRLALEELLRVSRTGNEHDHHRLVDPHVRMEINGRELHGWEVLVRLMHRYDHQELRVREVRVIGDKIDVDTENIVNFNGVEIVLETSIVARKIDGRWLIHSIHIG	1.23
